Results: the nanobody polyreactivity screen of Harvey et al. (2022)

experiment: yeast display, Sf9 membrane polyspecificity reagent, FACS + sequencing; frameworks hold sequencing errors
Summary of the method: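 Galactose-induced (36–48 hours) yeast carrying a synthetic nanobody display library were exposed to 10% biotinylated, detergent-solubilized Sf9 membrane reagent at 4 °C for 1 hour. FACS followed streptavidin microbead enrichment, using low and high (top ~1%) gates for expression (anti-HA) and reagent binding (streptavidin). Colony PCR, MiSeq 2 × 250 sequencing and CDR-length filtering followed. Labels for polyreactivity reflect the gate of origin.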

Sequence | polyreactivity (PSR sort gate)
QVQLVESGGGLVQAGGSLRLSCAASGSISYDYAMGWYRQAPGKERELVASITSRGGSTYADSVKGRFTISRDNAKNTVYLQMNSLKPEDTAVYYCAADAIPNLIFISLPFGLDYWGQGTQVTVSS | low polyreactivity
QVQLVESGGGLVQAGGSLRLSCAASGSISYFNDMGWYRQAPGKERELVAAIRDSGGITYADSVKGRFTISRDNAKNTVYLQMNSLKPEDTAVYYCDKDAGLQKYHHDYWGQGTQVTVSS | low polyreactivity
QVQLVESGGGLVQAGGSLRLSCAASGSISYQNAMGWYRQAPGKERELVAAISGDGDSTYYADSVKGRFTISRDNAKNTVYLQMNSLKPEDTAVYYCAAEPNVYFSVFVLFPSDYWGQGTQVTVSS | low polyreactivity
QVQLVESGGGLVQAGGSLRLSCAASGSISYRYVMGWYRQAPGKERELVAAITTSGGSTYYADSVKGRFTISRDNAKNTVYLQKNSLKPEDTAVYYCAKVYQADQLRSHYDYWGQGTQVTVSS | high polyreactivity
QVQLVESGGGLVQAGGSLRLSCAASGSISYYNAMGWYRQAPGKERELVATITDSGGSTYYADSVKGRFTISRDNAKNTVYLQMNSLKPEDTAVYYCAVDYTEWYSIYDYWGQGTEVTVSS | low polyreactivity
QVQLVESGGGLVQAGGSLRLSCAASGSISYYYGMGWYRQAPGKERELVAAISTRGGSTYYADSVKGRFTISRDNAKNTVYLQMNSLKPEDTAVYYCAVRYYRPYSRFDYWGQGTQVTVSS | high polyreactivity
QVQLVESGGGLVQAGGSLRLSCAASGSITVPYGMGWYRQAPGKERELVAAITGGSTNYADSVKGRFTISRDNAKNTVYLQMNSLKPEDTAVYYCAADWWALYTRYDYWGQGSQVTVSS | low polyreactivity
QVQLVESGGGLVQAGGSLRLSCAASGSIVDFYAMGWYRQSPGTERELVAAIDDIDDSTYYADSVKGRFTISRDNAKNTVYLQMNSLKPEDTAVYYCAAELRPGYRSSYGLIYDYWGQGTQVTVSS | low polyreactivity
QVQLVESGGGLVQAGGSLRLSCAASGSIVDTNAMGWYRQAPGKERELVAAITSTDSTNYADSVKGRFTISRDNAKNTVYLQMNSLKPEDTAVYYCNAALSQLRRGGLAMDYWGQGTQVTVSS | low polyreactivity
QVQLVESGGGLVQAGGSLRLSCAASGSIVDWYVMGWYRQAPGKERELVAAITSTGSTYYADSVKGRFTISRDNAKNTVYLQMNSLKPEDTAVYYCATSFYVYPTYYIMDYWGQGTQVTVSS | low polyreactivity
QVQLVESGGGLVQAGGSLRLSCAASGSIVGTYAMGWYRQAPGKERELVAAITWRGGNTYYADSVKGRFTISRDNAKNTVYLQMNSLKPEDTAVYYCAARGYKSSRRYYYWGQGTQVTVSS | high polyreactivity
QVQLVESGGGLVQAGGSLRLSCAASGSIVGYNAMGWYRQAPGKEWEFVAAISWSGGRTYYADSVKGRFTISRDNAKNTVYLQMNILKPEDTAVYYSAADVFFYVYEAYLLYYWGQRTQVTVSS | low polyreactivity
QVQLVESGGGLVQAGGSLRLSCAASGSIVLIYAMGWYRQAPGKERELVAAITGRGGRTYYADSVKGRFTISRDNAKNTVYLQLNSLKPEDTAVYYCAADSVYTLGLKYDYWGQGTQVTVSS | high polyreactivity
QVQLVESGGGLVQAGGSLRLSCAASGSIVYRYAMGWYRPAPGKERELVAAISYSGGSTYYADSVKGRFTISRDNAKNTVYLQMNSLKPEDTAVYYCAKDYPPPISDYSRYYGYGYWGQGTQVTVSS | low polyreactivity
QVQLVESGGGLVQAGGSLRLSCAASGSIVYYYAMGWYRQAPGKERELVAAITRSGGSTYYADSVKGRFTISRDNAKNTVYLQMNSLKPEDTSVYYCAKDAHAYRDLDYWGQGTQVTVSS | low polyreactivity
QVQLVESGGGLVQAGGSLRLSCAASGSIYAVYAMGWYRPAPGKERELVATISGRGGSTYYADSVKGRFTISRDNAKNTVYLQMNSLKPEDTAVYYCNARVLFRRERMDSWGQGTQVTVSS | high polyreactivity
